Experimental data: patent publication US20250043302A1, “MUTATED HYDROXYPHENYLPYRUVATE DIOXYGENASE POLYPEPTIDE, AND CODING GENE AND USE THEREOF” (BEIJING DABEINONG BIOTECHNOLOGY CO., LTD., priority 2021, published 2025)
Where a chain is given by its changes, count along the chain named. In names and notes the source's numbering stands.

B1: AsHPPDm-F415W-02: nucleotide sequence encoding Avena sativa HPPD with F415W; vector DBN11791 (nucleic acid)
DNA: ATGCCACCTACTCCAGCTACAGCTACTGGTGCTGCTGCTGCTGCCGTTACTCCTGAGCACGCTGCCAGGTCATTCCCCAGGGTGGTTCGCGTGAACCCCAGATCTGATAGGTTCCCAGTTCTGAGCTTCCACCATGTTGAGCTGTGGTGCGCTGATGCTGCTTCTGCTGCTGGCAGGTTCTCTTTCGCTCTTGGTGCTCCACTCGCTGCTAGATCTGATCTGTCTACAGGAAATAGCGCTCATGCCTCACTCCTGCTTCGCTCAGGTGCTTTGGCCTTCCTCTTCACCGCTCCATATGCTCCCCCACCTCAGGAGGCTGCTACTGCTGCTGCTACAGCCTCCATTCCAAGCTTCTCAGCTGATGCCGCTAGAACCTTCGCTGCTGCTCATGGACTTGCCGTGAGGTCTGTTGGTGTTCGCGTGGCTGATGCTGCTGAGGCTTTCAGAGTTTCCGTTGCCGGCGGAGCTAGGCCAGCTTTCGCTCCTGCTGATTTGGGACATGGTTTCGGCCTGGCTGAGGTTGAGCTTTACGGTGACGTGGTTCTCCGCTTCGTGTCTTACCCAGATGAGACTGACCTGCCTTTCCTTCCCGGCTTCGAGAGAGTTTCCTCTCCTGGTGCCGTGGATTACGGCCTGACAAGGTTCGACCACGTGGTTGGAAACGTTCCCGAGATGGCTCCAGTGATCGATTACATGAAGGGCTTCCTTGGATTCCATGAGTTCGCCGAGTTCACTGCTGAGGACGTGGGAACCACTGAGTCCGGTTTGAACTCTGTGGTTCTCGCCAACAATTCTGAGGCTGTTTTGCTCCCTCTGAATGAGCCTGTGCATGGAACCAAGAGGAGAAGCCAGATTCAAACTTACCTGGAGTACCACGGTGGCCCTGGAGTTCAGCATATCGCCCTTGCTTCTAATGATGTGTTGCGCACACTCAGAGAGATGCGCGCCAGAACCCCCATGGGAGGTTTCGAGTTCATGGCCCCACCACAGGCTAAGTACTACGAGGGCGTTAGAAGGATTGCTGGAGACGTGTTGAGCGAGGAGCAGATCAAGGAGTGCCAAGAGCTGGGTGTTCTTGTGGATAGGGATGACCAGGGCGTTCTGCTTCAAATTTTCACTAAGCCAGTGGGCGACCGCCCTACATTCTTCCTTGAGATGATTCAAAGAATCGGCTGCATGGAGAAGGATGAGGTTGGACAGGAGTACCAAAAGGGCGGATGCGGTGGCTTCGGAAAGGGTAACTGGAGCGAGTTGTTCAAGTCAATCGAGGACTACGAGAAGAGCCTCGAGGTGAAGCAGTCAGTGGTTGCCCAAAAGTCCTGA
modifications: AsHPPDm-F415W-02 Nucleotide Sequence
notes: vector DBN11791
B2: AsHPPDm-F383Y-02: nucleotide sequence encoding Avena sativa HPPD with F383Y; vector DBN11795 (nucleic acid)
DNA: B1 DNA with T1148A, C1149T, G1244T, G1245C
modifications: AsHPPDm-F383Y-02 Nucleotide Sequence
notes: vector DBN11795
B3: AsHPPDm-F372A-F383Y-02: nucleotide sequence encoding Avena sativa HPPD with F372A+F383Y; vector DBN11796 (nucleic acid)
DNA: B1 DNA with T1114G, T1115C, T1148A, C1149T, G1244T, G1245C
modifications: AsHPPDm-F372A-F383Y-02 Nucleotide Sequence
notes: vector DBN11796
B4: AsHPPDm-F372A-F415W-02: nucleotide sequence encoding Avena sativa HPPD with F372A+F415W; vector DBN11792 (nucleic acid)
DNA: B1 DNA with T1114G, T1115C
modifications: AsHPPDm-F372A-F415W-02 Nucleotide Sequence
notes: vector DBN11792

Legend:
[1] = tested on: Arabidopsis thaliana T1 plants; test: Isoxaflutole tolerance of transgenic Arabidopsis thaliana T1 plants (spray, bleached leaf area grade, damage score); type: in vivo; conditions: for Classification and statistics of the grade of pesticide damage Grade 0 / Classification and statistics of the grade of pesticide damage Grade 1 / Classification and statistics of the grade of pesticide damage Grade 2 / Classification and statistics of the grade of pesticide damage Grade 3: number of plants in grade;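 on Scores: Weighted damage index from 0 to 100 where higher means more damage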
Procedure, shortened: (§1)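 T1 transformants selected by glufosinate; 18-day-old plants, with empty-vector and wild-type controls, sprayed with topramezone (25–200 g ai/ha), isoxaflutole (35–280 g ai/ha) or mesotrione (52.5–420 g ai/ha), water as 0×. Bleached leaf area fraction scored at 7 DAT as grades 0–3.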

[2] = tested on: Arabidopsis thaliana T1 plants; test: Mesotrione tolerance of transgenic Arabidopsis thaliana T1 plants (spray, bleached leaf area grade, damage score); type: in vivo; parameters: Scores: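 damage score 0-100 computed as Σ(N×S)/(T×M)×100 over grades 0-3 with higher meaning more damage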; conditions: for Classification and statistics of the grade of pesticide damage Grade 0 / Classification and statistics of the grade of pesticide damage Grade 1 / Classification and statistics of the grade of pesticide damage Grade 2 / Classification and statistics of the grade of pesticide damage Grade 3: number of plants in grade
Procedure, shortened: as §1

Row | Molecule | Resistance evaluation ([1]; isoxaflutole 140 g ai/ha) | Scores ([1]; isoxaflutole 140 g ai/ha) | Classification and statistics of the grade of pesticide damage Grade 0 ([1]; isoxaflutole 140 g ai/ha) | Classification and statistics of the grade of pesticide damage Grade 1 ([1]; isoxaflutole 140 g ai/ha) | Classification and statistics of the grade of pesticide damage Grade 2 ([1]; isoxaflutole 140 g ai/ha) | Classification and statistics of the grade of pesticide damage Grade 3 ([1]; isoxaflutole 140 g ai/ha) | Resistance evaluation ([1]; isoxaflutole 280 g ai/ha) | Scores ([1]; isoxaflutole 280 g ai/ha) | Classification and statistics of the grade of pesticide damage Grade 0 ([1]; isoxaflutole 280 g ai/ha) | Classification and statistics of the grade of pesticide damage Grade 1 ([1]; isoxaflutole 280 g ai/ha) | Classification and statistics of the grade of pesticide damage Grade 2 ([1]; isoxaflutole 280 g ai/ha) | Classification and statistics of the grade of pesticide damage Grade 3 ([1]; isoxaflutole 280 g ai/ha) | Resistance evaluation ([2]; mesotrione 210 g ai/ha) | Scores ([2]; mesotrione 210 g ai/ha) | Classification and statistics of the grade of pesticide damage Grade 0 ([2]; mesotrione 210 g ai/ha) | Classification and statistics of the grade of pesticide damage Grade 1 ([2]; mesotrione 210 g ai/ha) | Classification and statistics of the grade of pesticide damage Grade 2 ([2]; mesotrione 210 g ai/ha) | Classification and statistics of the grade of pesticide damage Grade 3 ([2]; mesotrione 210 g ai/ha) | Resistance evaluation ([2]; mesotrione 420 g ai/ha) | Scores ([2]; mesotrione 420 g ai/ha) | also measured
1 | B1 | Moderately | 31 | 5 | 7 | 4 | 0 | Poorly | 63 | 0 | 2 | 14 | 0 | Non-resistant | 81 | 0 | 0 | 9 | 7 | Non-resistant | 100 | Classification and statistics of the grade of pesticide damage Grade 0 ([2]; mesotrione 420 g ai/ha): 0; Classification and statistics of the grade of pesticide damage Grade 1 ([2]; mesotrione 420 g ai/ha): 0; Classification and statistics of the grade of pesticide damage Grade 2 ([2]; mesotrione 420 g ai/ha): 0; Classification and statistics of the grade of pesticide damage Grade 3 ([2]; mesotrione 420 g ai/ha): 16
2 | B2 | Non-resistant | 100 | 0 | 0 | 0 | 16 | Non-resistant | 100 | 0 | 0 | 0 | 16 | Non-resistant | 100 | 0 | 0 | 0 | 16 | Non-resistant | 100 | Classification and statistics of the grade of pesticide damage Grade 0 ([2]; mesotrione 420 g ai/ha): 0; Classification and statistics of the grade of pesticide damage Grade 1 ([2]; mesotrione 420 g ai/ha): 0; Classification and statistics of the grade of pesticide damage Grade 2 ([2]; mesotrione 420 g ai/ha): 0; Classification and statistics of the grade of pesticide damage Grade 3 ([2]; mesotrione 420 g ai/ha): 16
3 | B3 | Moderately | 33 | 5 | 6 | 5 | 0 | Poorly | 67 | 0 | 0 | 16 | 0 | Moderately | 33 | 5 | 6 | 5 | 0 | Poorly resistant | 52 | Classification and statistics of the grade of pesticide damage Grade 0 ([2]; mesotrione 420 g ai/ha): 0; Classification and statistics of the grade of pesticide damage Grade 1 ([2]; mesotrione 420 g ai/ha): 8; Classification and statistics of the grade of pesticide damage Grade 2 ([2]; mesotrione 420 g ai/ha): 7; Classification and statistics of the grade of pesticide damage Grade 3 ([2]; mesotrione 420 g ai/ha): 1
4 | B4 | Moderately | 31 | 5 | 7 | 4 | 0 | Poorly | 63 | 0 | 3 | 12 | 1 | Moderately | 31 | 6 | 6 | 3 | 1 | Poorly resistant | 50 | Classification and statistics of the grade of pesticide damage Grade 0 ([2]; mesotrione 420 g ai/ha): 0; Classification and statistics of the grade of pesticide damage Grade 1 ([2]; mesotrione 420 g ai/ha): 8; Classification and statistics of the grade of pesticide damage Grade 2 ([2]; mesotrione 420 g ai/ha): 8; Classification and statistics of the grade of pesticide damage Grade 3 ([2]; mesotrione 420 g ai/ha): 0
